As a reminder, the Kd is the concentration at which binding is half-saturated. Higher therefore signals weaker binding. Broadly, the koff is the first-order rate constant of dissociation. As usually defined, the kon is the rate constant with which the complex forms. The low end stands for slower complex formation, the high end for faster complex formation.

Changes are numbered by the printed parent chain.

The target in the assay is T1, biotinylated GITR (human, UniProt Q9Y5U5 26-161, limits assumed, biotinylated (sites not given)).
T1 construct: also called GITR-bio; Biotin-GITR
T1 sequence: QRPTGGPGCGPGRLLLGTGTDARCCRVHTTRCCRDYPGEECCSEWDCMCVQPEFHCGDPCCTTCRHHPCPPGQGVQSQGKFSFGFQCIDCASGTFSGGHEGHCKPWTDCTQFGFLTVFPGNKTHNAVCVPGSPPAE
Description: BLI (Octet), biotin-GITR on streptavidin tips, antibody supernatant. On the procedure:
Several hundred germlined antibodies were selected based on binding kinetics as determined by Octet measurements (Octet RED 96 system; ForteBio™ Inc., Menlo Park, Calif.). The experimental procedure was configured according to the instruction manual of the instrument. Biotin-GITR was bound to Streptavidin biosensor (SA) and PBS (pH 7.4) was used as a blank control. Briefly, the interaction analyses were conducted at 30° C. in running buffer (PBS, 0.05% Tween, pH7.4). Sensor tips were pre-wet for 10 minutes in running buffer immediately prior to use, and the micro plates used in the Octet were filled with 200 μl of sample or buffer per well and agitated at 800 rpm. For the experiments, commercially available precoated SA tips were used. Biotinylated GITR was loaded onto the ForteBio SA fibers in PBS pH7.4 for 10 minutes and washed for 4 minutes. For the association phase, the ligand-coated SA tips were immersed for 5 minutes in cell culture supernatant that was diluted 1:10 in running buffer prior to the measurement. Dissociation of the antibody-antigen complex was measured in wells containing the Octet buffer alone for 5 minutes. After each run, the tips were regenerated with Glycine (10 mM, pH 2.0). Affinity, Kₒₙ and Koff were determined with Octet evaluation software v6.3 using a 1:1 binding model with local full fitting.
(Biolayer interferometry detects binding as a change in optical thickness at a sensor tip.)

B1: germline variant antibody 105 (H1917H07 / K1917H07) (antibody, V domains shown)
VH: QVQLVQSGAEVKKPGASVKVSCKGSGYTFTEYAMYWVRQAPGQGLEWMGLIRTFSGGVSYNQKFKGRVTMTVDTSISTAYMELSRLRSDDTAVYYCAKSGTVRGFAYWGQGTLVTVSS
VL: DIVMTQSPDSLAVSLGERATINCKSSQSLLNSGNQKNYLSWYQQKPGQPPKLLIYWASTRESGVPDRFSGSGSGTDFTLTISSVQAEDVAVYYCQNDYSYPYTFGQGTKLEIK
notes: IGHG1/IGKC expression vectors; measured from CHO culture supernatant
B1: the Kd turned out to be 1.38 nM, the koff amounted to 0.000486 s⁻¹ and the kon was 351000 M⁻¹ s⁻¹.

B2: germline variant antibody 91 (H1917F03 / K1917F03) (antibody, V domains shown)
VH: B1 VH with A9T, Y35H, L45M, F54Y, K65Q, G66E, V68A
VL: B1 VL with Y93H, D97E, Y100F
notes: IGHG1/IGKC expression vectors; measured from CHO culture supernatant; also called Antibody ID 91
In turn, B2 displayed a Kd of 3.07 nM, a koff of 0.00159 s⁻¹ and a kon of 520000 M⁻¹ s⁻¹.

B3: germline variant antibody 47 (H1916E08 / K1916E08) (antibody, V domains shown)
VH: B1 VH with G24A, E31D, L45M, L50V, F54Y, S59T, K65R, G66D, T74K, Y107D
VL: B1 VL with S69T, Y93H, Y100F
notes: IGHG1/IGKC expression vectors; measured from CHO culture supernatant; also called Antibody ID 47
As for B3, binding was characterised by a dissociation constant (Kd) of 2.06 nM, the koff worked out at 0.000804 s⁻¹ and the kon is 391000 M⁻¹ s⁻¹.

B4: germline variant antibody 80 (H1917D07 / K1917D07) (antibody, V domains shown)
VH: B1 VH with A9T, G24A, Y35H, L45M, G57D, K65R
VL: B1 VL with G33S, S40T, S69T, V84L, Y100F
notes: IGHG1/IGKC expression vectors; measured from CHO culture supernatant; also called Antibody ID 80
B4 yielded a Kd of 0.696 nM, a koff of 0.000454 s⁻¹ and a kon of 652000 M⁻¹ s⁻¹.

B5: germline variant antibody 45 (H1916E05 / K1916E05) (antibody, V domains shown)
VH: B1 VH with M48I, F54Y, K65Q, L113F
VL: B1 VL with Q43H, S69T, Y100F
notes: IGHG1/IGKC expression vectors; measured from CHO culture supernatant; also called Antibody ID 45
Consider B5, for which the Kd came to 0.562 nM, the koff came to 0.000255 s⁻¹ and the kon amounted to 455000 M⁻¹ s⁻¹.

B6: germline variant antibody 94 (H1917G01 / K1917G01) (antibody, V domains shown)
VH: B1 VH with A9T, E31G, M48I, L50V, S59T, K65R, G66D, T74K, L113F
VL: B1 VL with S40T, S69T, Y93H
notes: IGHG1/IGKC expression vectors; measured from CHO culture supernatant; also called Antibody ID 94
For the molecule B6, the Kd was 1.18 nM, the koff stood at 0.00044 s⁻¹ and the kon was 372000 M⁻¹ s⁻¹.

B7: germline variant antibody 43 (H1916E03 / K1916E03) (antibody, V domains shown)
VH: B1 VH with L45M, M48I, G57D, V68A, T74K
VL: B1 VL with S40T, L52M, S69T, Y93H
notes: IGHG1/IGKC expression vectors; measured from CHO culture supernatant; also called Antibody ID 43
The molecule B7 registered a Kd of 1.28 nM, a koff of 0.000477 s⁻¹ and a kon of 373000 M⁻¹ s⁻¹.

B8: germline variant antibody 58 (H1916G04 / K1916G04) (antibody, V domains shown)
VH: B1 VH with E31D, L50V, F54Y, S59T, V68A, T74K
VL: B1 VL with Q43H, Y93H
notes: IGHG1/IGKC expression vectors; measured from CHO culture supernatant; also called Antibody ID 58
Turning to B8, binding was characterised by a dissociation constant (Kd) of 1.58 nM, the koff came to 0.000415 s⁻¹ and the kon is 263000 M⁻¹ s⁻¹.

B9: germline variant antibody 85 (H1917E02 / K1917E02) (antibody, V domains shown)
VH: B1 VH with G24A, L50V, F54Y, S59T, G66D, V68A
VL: B1 VL with G33S, Q43H
notes: IGHG1/IGKC expression vectors; measured from CHO culture supernatant; also called Antibody ID 85
Molecule B9 yielded a Kd of 1.28 nM, a koff of 0.00037 s⁻¹ and a kon of 289000 M⁻¹ s⁻¹.

B10: germline variant antibody 46 (H1916E06 / K1916E06) (antibody, V domains shown)
VH: B1 VH with G24A, G57D, V58L, K65R
VL: B1 VL with Q43H, S69T, V84L, Y93H
notes: IGHG1/IGKC expression vectors; measured from CHO culture supernatant; also called Antibody ID 46
For the molecule B10, the Kd is 0.619 nM, the koff was determined as 0.000248 s⁻¹ and the kon turned out to be 400000 M⁻¹ s⁻¹.

B11: germline variant antibody 61 (H1917A02 / K1917A02) (antibody, V domains shown)
VH: B1 VH with A9T, G24A, Y35H, F54Y, K65Q, G66E, T74K
VL: B1 VL with Y100F
notes: IGHG1/IGKC expression vectors; measured from CHO culture supernatant; also called Antibody ID 61
In the case of B11, the affinity, expressed as Kd, was 1.83 nM; the koff came out at 0.00141 s⁻¹; the kon turned out to be 772000 M⁻¹ s⁻¹.

B12: germline variant antibody 107 (H1917H09 / K1917H09) (antibody, V domains shown)
VH: B1 VH with E31G, L50V, F54Y, G57D, K65R, G66D
VL: B1 VL with Q43H, S69T
notes: as for B1
B12 showed a Kd of 2.21 nM, an off-rate (koff) of 0.000657 s⁻¹ and a kon of 298000 M⁻¹ s⁻¹.

B13: germline variant antibody 71 (H1917B07 / K1917B07) (antibody, V domains shown)
VH: B1 VH with G24A, E31G, L45M, L50V, S59T, K65R, V68A
VL: B1 VL with G33S, S40T, S69T, Y93H
notes: IGHG1/IGKC expression vectors; measured from CHO culture supernatant; also called Antibody ID 71
Take B13: the affinity, expressed as Kd, was 0.241 nM; the koff was 0.000252 s⁻¹; the kon came to 1.05e+06 M⁻¹ s⁻¹.

B14: germline variant antibody 55 (H1916F10 / K1916F10) (antibody, V domains shown)
VH: B1 VH with A9T, G24A, E31D, M48I, F54Y, S59T, K65Q
VL: B1 VL with Y93H, Y100F
notes: IGHG1/IGKC expression vectors; measured from CHO culture supernatant; also called Antibody ID 55
B14 yielded a Kd of 1.27 nM, a koff of 0.00055 s⁻¹ and a kon of 435000 M⁻¹ s⁻¹.

B15: germline variant antibody 75 (H1917C09 / K1917C09) (antibody, V domains shown)
VH: B1 VH with A9T, E31G, M48I, L50V, F54Y, S59T, K65Q, T74K
VL: B1 VL with Q43H, S69T, V84L
notes: IGHG1/IGKC expression vectors; measured from CHO culture supernatant; also called Antibody ID 75
With B15, the Kd amounted to 2.92 nM, the koff stood at 0.000925 s⁻¹ and the kon is 317000 M⁻¹ s⁻¹.
